The source of these data is paper PMC2185562.

This experiment has as its target endogenous ezrin of LLC-PK1 cells (pig (endogenous in LLC-PK1)) (UniProt F1SB42). As to the kind of experiment: SEC.

“And” between values parts separate entries of the source, which are not always exact repeats. Equal values may be shown once.

For the substance “endogenous ezrin of LLC-PK1 cells (from UniProt F1SB42 1-551) (natural protein)”, the percent of the ezrin of the fraction that is oligomers is 15% and 28%; the percent of the total cellular ezrin found as oligomers in this fraction was 12.3% and 2.6%.
